B1: Orc5 (subunit of the insect cell–purified ORC) (natural protein, budding yeast, UniProt P50874 1-479, looked up)
chain: MNVTTPEVAFREYQTNCLASYISADPDITPSNLILQGYSGTGKTYTLKKYFNANPNLHAVWLEPVELVSWKPLLQAIARTVQYKLKTLYPNIPTTDYDPLQVEEPFLLVKTLHNIFVQYESLQEKTCLFLILDGFDSLQDLDAALFNKYIKLNELLPKDSKINIKFIYTMLETSFLQRYSTHCIPTVMFPRYNVDEVSTILVMSRCGELMEDSCLRKRIIEEQITDCTDDQFQNVAANFIHLIVQAFHSYTGNDIFALNDLIDFKWPKYVSRITKENIFEPLALYKSAIKLFLSTDDNLSENGQGESAITTNRDDLENSQTYDLSIISKYLLIASYICSYLEPRYDASIFSRKTRIIQGRAAYGRRKKKEVNPRYLQPSLFAIERLLAIFQAIFPIQGKAESGSLSALREESLMKANIEVFQNLSELHTLKLIATTMNKNIDYLSPKVRWKVNVPWEIIKEISESVHFNISDYFSDIHE
notes: Orc5, budding yeast; Stood in the assays as a subunit of m16; source: Tnao38 insect cells, co-expressed, purified as part of His–ORC
B2: His–MBP–Pch2 (natural protein, budding yeast, UniProt P38126 1-564, looked up)
chain: MSYIVDLQVRGSSLRVIKCMFREDEQISSLHSGSDSKQNSNKKLGEFLNLLKAVVKRKLESFPKDRLKTSIITGQELMREGQGSIEIKDPPTEAQQHLIRSLAKVLLHQFSSINGKVNTVNEGQDNLFLSLFVKKISIEQQSTSHVSIKLNFHEKINLGQHIDSILDSEETNESDTYHMGSVDEFIIYPFCCLEEQDELKNGSILSTEFDKIDLELDEDDGFEGETLNNCINSVGNFDIPLSKQTLNLVNISYLPGTTFEGQWESLYFGNNIKERLYSYATISLKIARFKQTGDSNQEDITTLITNNKLLLVHGPPGTGKTTLCKALCQKLSVRREFSDGSDTIDTNYKGIIIELSCARIFSKWFGESSKNISIVFKDIEELLKVNEGRGIFICLLIDEVEAIASSRTNLSSRNESTDGIRVVNTLLTQLDRLKKYHNFLALATSNLLDSLDDAFVDRADGVFYVGNPTAEGILHILKVCIEEMITSGIILFHARSTGVKFFNKYQDILRKIAIKCSTVDISGRTIRKLPLMCLSEYFRTFPVDDDEFVLALAMSARKLSAARK
notes: Pch2, budding yeast; from codon-optimized cDNA in a pLIB–His–MBP vector; Apparent hexamer by SEC, with a minor fraction that appears monomeric; also called purified Pch2; full-length Pch2; source: Tnao38 insect cells (baculovirus), purified (TALON, amylose, SEC); not shown: His, N-terminal, kept; MBP, N-terminal, kept
B3: His–MBP–Pch2-2-144 (domain or fragment, budding yeast, UniProt P38126 2-144, looked up)
chain: SYIVDLQVRGSSLRVIKCMFREDEQISSLHSGSDSKQNSNKKLGEFLNLLKAVVKRKLESFPKDRLKTSIITGQELMREGQGSIEIKDPPTEAQQHLIRSLAKVLLHQFSSINGKVNTVNEGQDNLFLSLFVKKISIEQQSTS
notes: Pch2, budding yeast, part of the NH2-terminal domain; Monomer by SEC; also called minimal NH2-terminal fragment of Pch2; source: Tnao38 insect cells (baculovirus), purified (TALON, amylose, SEC); not shown: His, N-terminal, kept; MBP, N-terminal, kept

The target of the data set “His–MBP–Pch2” is B2. In words: cross-linking; XL-MS: 0.75 μM His–MBP–Pch2 with 1.5 μM His–ORC, 30 mM HEPES pH 7.5, 150 mM NaCl, 2 mM TCEP, 90 min at 4°C; 3 mM DSBU, 25°C, 1 h; MeroX, 2% FDR. As to conditions: both partners purified.
Data set [1] has as its target T1, His–Orc1 (subunit of the insect cell–purified ORC) (budding yeast, UniProt P54784 1-914).
T1 construct: Orc1, budding yeast; Stood in the assays as a subunit of m16; source: Tnao38 insect cells, co-expressed with Orc2-6, purified as part of His–ORC
T1 sequence (looked up): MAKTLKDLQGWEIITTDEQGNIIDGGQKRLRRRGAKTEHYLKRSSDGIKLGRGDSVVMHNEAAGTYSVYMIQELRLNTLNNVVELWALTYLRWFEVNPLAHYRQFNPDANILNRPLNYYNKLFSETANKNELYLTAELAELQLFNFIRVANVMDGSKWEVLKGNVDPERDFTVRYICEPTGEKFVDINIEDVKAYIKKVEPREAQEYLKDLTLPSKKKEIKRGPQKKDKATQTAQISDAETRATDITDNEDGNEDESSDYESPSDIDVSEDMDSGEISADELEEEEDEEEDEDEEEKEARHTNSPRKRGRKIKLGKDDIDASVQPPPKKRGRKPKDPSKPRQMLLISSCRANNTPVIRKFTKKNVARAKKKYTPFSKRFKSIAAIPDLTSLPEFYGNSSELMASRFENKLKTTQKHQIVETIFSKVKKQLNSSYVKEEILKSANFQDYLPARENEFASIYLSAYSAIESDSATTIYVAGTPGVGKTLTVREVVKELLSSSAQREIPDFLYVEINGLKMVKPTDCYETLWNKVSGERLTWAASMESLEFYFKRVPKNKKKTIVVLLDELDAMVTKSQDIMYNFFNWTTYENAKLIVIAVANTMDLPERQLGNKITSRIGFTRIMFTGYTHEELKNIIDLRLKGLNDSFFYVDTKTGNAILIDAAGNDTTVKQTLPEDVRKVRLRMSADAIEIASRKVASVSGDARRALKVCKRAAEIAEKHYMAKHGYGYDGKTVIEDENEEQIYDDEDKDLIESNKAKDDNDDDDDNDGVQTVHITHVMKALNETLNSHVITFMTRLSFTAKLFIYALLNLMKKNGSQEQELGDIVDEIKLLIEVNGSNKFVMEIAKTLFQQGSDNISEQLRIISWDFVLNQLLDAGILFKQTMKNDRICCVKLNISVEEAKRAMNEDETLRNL
Described as above. The following applies: both partners purified.

In data set [2] the target is T2, dephosphorylated His–ORC (λ-phosphatase treated) (budding yeast, UniProt P54784 1-914; P32833 1-620; P54790 1-616; P54791 1-529; P50874 1-479; P38826 …).
T2 construct: Orc1, budding yeast; as in m16; Orc2, budding yeast; Orc3, budding yeast; Orc4, budding yeast; Orc5, budding yeast; Orc6, budding yeast; as in m16, dephosphorylated (single band); also called dephosphorylated ORC; source: Tnao38 insect cells, purified, then treated with λ-phosphatase at 4°C overnight; copies: + + + + +
In words: pull-down; His–MBP–Pch2 (1 μM as hexamer) or fragments (6 μM of 2-144) on amylose beads, 1 μM ORC added, 90 min on ice; 30 mM HEPES pH 7.5, 150 mM NaCl, 10 mM imidazole, 0.1% Tween-20, 10 mM MgCl2; Coomassie staining or Western blot (α-MBP, α-ORC). As to conditions: both partners purified.

In data set [3] the target is T3, His–ORC (His–Orc1, Orc2-6) purified from insect cells (budding yeast, UniProt P54784 1-914; P32833 1-620; P54790 1-616; P54791 1-529; P50874 1-479; P38826 …, a fraction of Orc6 phosphorylated (double band, collapsed by λ-phosphatase); sites not stated).
T3 construct: Orc1, budding yeast; Orc2, budding yeast; Orc3, budding yeast; Orc4, budding yeast; Orc5, budding yeast; Orc6, budding yeast; Total size about 414 kD as printed; also called His–Orc1-6; origin recognition complex; source: Tnao38 insect cells coinfected with two baculoviruses, purified (His-tag resin, SEC); copies: + + + + +
The data set is described as above. As to conditions: both partners purified.

In data set [4] the target is T4, ORC (Orc1-6, with Orc1 carrying a CBP tag) purified from budding yeast (budding yeast, UniProt P54784 1-914; P32833 1-620; P54790 1-616; P54791 1-529; P50874 1-479; P38826 …).
T4 construct: Orc1, budding yeast; Orc2, budding yeast; Orc3, budding yeast; Orc4, budding yeast; Orc5, budding yeast; Orc6, budding yeast; also called budding yeast ORC (CBP–Orc1); budding yeast–purified ORC; source: purified from α-factor–arrested vegetative budding yeast cells (yGV3358), concentrated on calmodulin beads; copies: + + + + +
In words: pull-down; ORC from budding yeast bound to calmodulin beads, His–MBP–Pch2 added for 1 h on ice; 30 mM HEPES pH 7.5, 200 mM NaCl, 2 mM CaCl2; with or without MgCl2 and ADP, ATP or ATP analogs; Coomassie staining. As to conditions: both partners purified.

Data set [5] concerns the molecule itself. In words: SEC; single purified proteins: His–MBP–Pch2 (2 μM), His–MBP–Pch2-243-564 (2 μM), His–MBP–Pch2-2-144 (6 μM; Superdex 200 5/150 GL); 30 mM HEPES pH 7.5, 150 mM NaCl, 3% glycerol, 2 mM TCEP, 1 mM MgCl2. For orientation: Size exclusion chromatography separates by hydrodynamic size, large species first.
Another data set addresses T5, 6xHis–Hop1 (budding yeast, UniProt P20050 1-605).
T5 construct: Hop1, HORMA domain protein, substrate of Pch2; source: E. coli BL21 RIPL, purified (TALON, heparin, SEC); not shown: 6xHis, N-terminal, kept
T5 sequence (looked up): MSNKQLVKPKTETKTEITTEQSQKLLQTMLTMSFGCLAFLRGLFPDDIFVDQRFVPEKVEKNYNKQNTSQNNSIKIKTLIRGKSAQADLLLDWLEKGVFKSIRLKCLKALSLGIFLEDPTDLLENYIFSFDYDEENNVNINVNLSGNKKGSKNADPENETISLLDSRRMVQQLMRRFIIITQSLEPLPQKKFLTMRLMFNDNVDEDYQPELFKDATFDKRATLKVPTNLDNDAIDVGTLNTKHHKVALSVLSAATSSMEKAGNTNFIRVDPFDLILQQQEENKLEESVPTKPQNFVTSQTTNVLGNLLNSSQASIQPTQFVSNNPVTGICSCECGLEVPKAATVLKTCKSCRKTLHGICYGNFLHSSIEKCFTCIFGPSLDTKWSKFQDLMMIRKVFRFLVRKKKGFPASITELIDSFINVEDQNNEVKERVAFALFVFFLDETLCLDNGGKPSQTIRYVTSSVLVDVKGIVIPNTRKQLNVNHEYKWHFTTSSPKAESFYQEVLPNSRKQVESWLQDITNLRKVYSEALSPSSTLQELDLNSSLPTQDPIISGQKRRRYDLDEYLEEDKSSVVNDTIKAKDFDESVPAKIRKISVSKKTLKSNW
In words: pull-down; His–MBP–Pch2 (1 μM, as hexamer) on amylose beads, 6 μM Hop1 added, 90 min on ice; 50 mM Tris pH 7.5, 50 mM NaCl, 10 mM imidazole, 0.1% Tween-20, 1 mM MgCl2; with or without 200 μM ATP or ATPγS; Coomassie staining. The following applies: both partners purified.

The values that follow come from paper PMC7442955, “Biochemical and functional characterization of a meiosis-specific Pch2/ORC AAA+ assembly” (Life Science Alliance, 2020).

The term stoichiometry N denotes a count of units in the complex or per binding partner.

T3 sequence (P32833 whole entry, chain 2 of 4): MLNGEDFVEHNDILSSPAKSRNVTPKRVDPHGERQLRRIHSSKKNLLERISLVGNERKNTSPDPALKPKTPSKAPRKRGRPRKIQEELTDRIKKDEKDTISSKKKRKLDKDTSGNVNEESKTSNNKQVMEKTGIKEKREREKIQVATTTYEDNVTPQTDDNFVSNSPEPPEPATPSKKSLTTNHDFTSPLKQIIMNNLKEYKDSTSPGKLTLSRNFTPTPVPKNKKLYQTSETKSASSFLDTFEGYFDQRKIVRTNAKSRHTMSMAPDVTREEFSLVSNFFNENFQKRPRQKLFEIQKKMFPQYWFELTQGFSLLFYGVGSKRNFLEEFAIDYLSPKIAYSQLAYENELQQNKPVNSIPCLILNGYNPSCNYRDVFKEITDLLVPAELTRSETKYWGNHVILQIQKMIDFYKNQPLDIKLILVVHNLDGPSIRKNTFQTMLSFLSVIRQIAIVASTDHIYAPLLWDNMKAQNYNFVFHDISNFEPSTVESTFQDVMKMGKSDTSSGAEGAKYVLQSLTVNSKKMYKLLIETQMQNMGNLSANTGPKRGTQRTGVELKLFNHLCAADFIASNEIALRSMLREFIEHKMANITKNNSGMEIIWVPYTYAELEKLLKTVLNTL
T3 sequence (P54790 whole entry, chain 3 of 4): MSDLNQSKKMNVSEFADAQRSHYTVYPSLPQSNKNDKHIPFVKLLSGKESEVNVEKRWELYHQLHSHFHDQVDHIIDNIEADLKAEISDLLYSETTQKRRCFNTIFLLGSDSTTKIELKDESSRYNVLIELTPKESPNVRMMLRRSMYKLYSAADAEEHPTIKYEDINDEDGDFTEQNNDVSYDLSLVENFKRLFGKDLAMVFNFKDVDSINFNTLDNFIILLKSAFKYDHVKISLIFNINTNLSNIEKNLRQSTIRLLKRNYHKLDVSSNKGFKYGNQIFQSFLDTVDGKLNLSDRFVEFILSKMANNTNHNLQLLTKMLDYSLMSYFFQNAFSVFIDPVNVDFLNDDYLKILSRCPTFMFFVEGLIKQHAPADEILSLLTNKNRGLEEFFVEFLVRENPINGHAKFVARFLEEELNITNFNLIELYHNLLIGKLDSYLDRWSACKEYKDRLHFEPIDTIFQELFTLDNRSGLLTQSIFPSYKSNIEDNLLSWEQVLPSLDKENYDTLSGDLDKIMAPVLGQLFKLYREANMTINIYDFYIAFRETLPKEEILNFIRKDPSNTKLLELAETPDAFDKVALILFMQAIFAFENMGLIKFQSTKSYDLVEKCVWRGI
T3 sequence (P54791 whole entry, chain 4 of 4): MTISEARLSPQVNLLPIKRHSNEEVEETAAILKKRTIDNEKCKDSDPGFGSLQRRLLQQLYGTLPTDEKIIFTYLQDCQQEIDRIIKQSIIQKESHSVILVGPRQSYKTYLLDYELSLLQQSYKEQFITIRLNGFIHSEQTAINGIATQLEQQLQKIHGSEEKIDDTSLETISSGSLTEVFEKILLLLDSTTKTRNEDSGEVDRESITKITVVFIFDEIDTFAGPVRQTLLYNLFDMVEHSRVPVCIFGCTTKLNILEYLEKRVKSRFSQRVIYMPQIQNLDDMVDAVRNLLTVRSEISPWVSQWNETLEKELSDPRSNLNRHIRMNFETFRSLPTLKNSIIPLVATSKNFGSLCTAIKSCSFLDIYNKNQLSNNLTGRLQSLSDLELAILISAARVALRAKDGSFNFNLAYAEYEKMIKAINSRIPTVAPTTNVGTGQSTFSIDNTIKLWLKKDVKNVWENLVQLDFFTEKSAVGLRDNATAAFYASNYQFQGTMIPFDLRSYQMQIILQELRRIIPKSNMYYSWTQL
T3 sequence (P38826 whole entry, chain 6 of 4): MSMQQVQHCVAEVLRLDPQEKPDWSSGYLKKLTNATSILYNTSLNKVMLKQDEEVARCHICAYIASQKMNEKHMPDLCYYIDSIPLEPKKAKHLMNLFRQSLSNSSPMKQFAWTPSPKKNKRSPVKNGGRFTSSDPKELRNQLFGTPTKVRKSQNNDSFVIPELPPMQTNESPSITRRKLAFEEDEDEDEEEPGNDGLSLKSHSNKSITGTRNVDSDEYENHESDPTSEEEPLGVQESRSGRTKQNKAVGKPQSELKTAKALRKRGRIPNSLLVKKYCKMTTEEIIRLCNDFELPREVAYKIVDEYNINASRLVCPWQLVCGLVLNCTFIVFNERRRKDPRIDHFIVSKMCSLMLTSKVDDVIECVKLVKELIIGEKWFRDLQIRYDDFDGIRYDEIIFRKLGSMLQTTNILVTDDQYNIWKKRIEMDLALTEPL
T4 sequence (P32833 whole entry, chain 2 of 4): as the sequence (P32833 whole entry, chain 2 of 4) above
T4 sequence (P54790 whole entry, chain 3 of 4): as the sequence (P54790 whole entry, chain 3 of 4) above
T4 sequence (P54791 whole entry, chain 4 of 4): as the sequence (P54791 whole entry, chain 4 of 4) above
T4 sequence (P38826 whole entry, chain 6 of 4): as the sequence (P38826 whole entry, chain 6 of 4) above
T2 sequence (P32833 whole entry, chain 2 of 4): as the sequence (P32833 whole entry, chain 2 of 4) above
T2 sequence (P54790 whole entry, chain 3 of 4): as the sequence (P54790 whole entry, chain 3 of 4) above
T2 sequence (P54791 whole entry, chain 4 of 4): as the sequence (P54791 whole entry, chain 4 of 4) above
T2 sequence (P38826 whole entry, chain 6 of 4): as the sequence (P38826 whole entry, chain 6 of 4) above

For B1, the binding result in the data set with His–MBP–Pch2 is on record as “binds”.

Take B2: the binding result (in data set [1]; in data set [2]; in data set [3]; in data set [4]; with 6xHis–Hop1) was “binds” in each case. The “stoichiometry N” value in data set [5] was 6.

Turning to B3, the binding result in data set [3] is “binds”.
